# Article PMC4381594, “GCN5 inhibits XBP-1S-mediated transcription by antagonizing PCAF action” (Oncotarget, 2014)
# T1: XBP-1S, the active isoform of X-box binding protein 1 (human, UniProt P17861-2 1-376)
# T1 sequence (looked up): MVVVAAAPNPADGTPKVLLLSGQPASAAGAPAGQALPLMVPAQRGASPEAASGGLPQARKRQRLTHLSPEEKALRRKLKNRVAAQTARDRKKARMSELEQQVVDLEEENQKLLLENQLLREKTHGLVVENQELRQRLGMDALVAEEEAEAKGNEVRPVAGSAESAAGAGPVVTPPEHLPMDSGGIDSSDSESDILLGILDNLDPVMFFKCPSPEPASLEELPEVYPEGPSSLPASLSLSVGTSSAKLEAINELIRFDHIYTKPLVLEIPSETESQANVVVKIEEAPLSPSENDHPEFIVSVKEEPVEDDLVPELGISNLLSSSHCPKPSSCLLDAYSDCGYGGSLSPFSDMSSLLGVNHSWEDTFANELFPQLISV
# B1: general control nonderepressible 5 (GCN5) (enzyme, human, UniProt Q92830 1-837, looked up)
# chain: MAEPSQAPTPAPAAQPRPLQSPAPAPTPTPAPSPASAPIPTPTPAPAPAPAAAPAGSTGTGGPGVGSGGAGSGGDPARPGLSQQQRASQRKAQVRGLPRAKKLEKLGVFSACKANETCKCNGWKNPKPPTAPRMDLQQPAANLSELCRSCEHPLADHVSHLENVSEDEINRLLGMVVDVENLFMSVHKEEDTDTKQVYFYLFKLLRKCILQMTRPVVEGSLGSPPFEKPNIEQGVLNFVQYKFSHLAPRERQTMFELSKMFLLCLNYWKLETPAQFRQRSQAEDVATYKVNYTRWLCYCHVPQSCDSLPRYETTHVFGRSLLRSIFTVTRRQLLEKFRVEKDKLVPEKRTLILTHFPKFLSMLEEEIYGANSPIWESGFTMPPSEGTQLVPRPASVSAAVVPSTPIFSPSMGGGSNSSLSLDSAGAEPMPGEKRTLPENLTLEDAKRLRVMGDIPMELVNEVMLTITDPAAMLGPETSLLSANAARDETARLEERRGIIEFHVIGNSLTPKANRRVLLWLVGLQNVFSHQLPRMPKEYIARLVFDPKHKTLALIKDGRVIGGICFRMFPTQGFTEIVFCAVTSNEQVKGYGTHLMNHLKEYHIKHNILYFLTYADEYAIGYFKKQGFSKDIKVPKSRYLGYIKDYEGATLMECELNPRIPYTELSHIIKKQKEIIKKLIERKQAQIRKVYPGLSCFKEGVRQIPVESVPGIRETGWKPLGKEKGKELKDPDQLYTTLKNLLAQIKSHPSAWPFMEPVKKSEAPDYYEVIRFPIDLKTMTERLRSRYYVTRKLFVADLQRVIANCREYNPPDSEYCRCASALEKFFYFKLKEGGLIDK
# notes: No tag is named for this plasmid; precipitated and detected with anti-GCN5 (ab71965); also called GCN5 WT; source: 293T, transfected, in lysate
# Experiments:
# [1] = biological target: T1, XBP-1S, the active isoform of X-box …; assay: cell-based or functional assay
# [2] = biological target: T1, XBP-1S, the active isoform of X-box …; assay: co-IP; 293T cells co-transfected with PCAF and XBP-1S vectors with or without a GCN5 plasmid; IP with anti-XBP-1 antibody, immunoblot with anti-PCAF or anti-XBP-1; bands quantified by densitometry, PCAF normalised to precipitated XBP-1S; conditions: partners not purified
binder,measurement,setting,value
B1,fold decrease in XBP-1S-mediated luciferase expression from the 5×UPRE-Luc reporter in HEK293 cells with GCN5 overexpressed,[1],> 5 fold
same,fold decrease of PCAF-XBP-1S binding with GCN5 overexpressed,[2],4 fold
